Where “and” joins values, the source holds several entries; their conditions need not be identical. Equal entries are not always repeated.
Legend:
[1] = system: T cells (CD4 and CD8 positive); experiment: CD40L MFI in vitro in CD4 and CD8 positive T cells, 10 μM TMP; format: cell-based
Protocol: T cells were transduced with OT-001662 and then treated with 10 μM TMP on day 4. CD40L expression was analyzed by FACS both in the CD4 and CD8 positive T cell populations.

[2] = system: T cells co-cultured with monocyte derived dendritic cells (mDC); experiment: CD40L levels in T cells in mDC co-culture (FACS); format: cell-based; conditions: for % CD40L+ / CD40L MFI: mDC co-culture 2 days; for SR (based on %) / SR (based on MFI): stabilization ratio
From the text: In order to engage dendritic cells in an immune response, dendritic cells must be converted to a functional state by an antigen-specific CD4+ helper T cell. Activation of the dendritic cells may be followed by the activation of CD8+ T cells by the dendritic cells, a process referred to as dendritic cell licensing. Engagement of the CD40L expressed on the CD4+ cells with the CD40 on the dendritic cells can result in (i) dendritic cell stimulation-measured by expression of co-stimulatory and MHC molecules (ii) proinflammatory cytokine release (e.g. IL12, TNFα and INFγ) (iii) epitope spreading. To measure the effect of CD40L expression that is tuned by the biocircuits of the present disclosure, CD4+ T cells or Jurkat cells expressing any of the CD40L constructs described herein were co-cultured with dendritic cells.
Dendritic cell function in response to co-culture with T cells expressing CD40L was evaluated in the presence of ligand or corresponding vehicle control. Monocyte derived dendritic cells (mDC) (CD14+) were isolated from fresh blood and cultured for 5 days with IL-4 (7.5 ng/mL) and GM-CSF (20 ng/mL). The mDCs were frozen down after the 5 day culture. T cells were transduced with OT-001662 and expanded for 9 days before being frozen down. mDCs and T cells were thawed and co-cultured 1:10 DC: T cell ratio (i.e. 5×10^4 DCs: 5×10^5 T cells). mDC and T cells were co-cultured for 2 days before cells were collected for flow cytometry and supernatants were collected for cytokine analysis. For evaluation of regulated constructs, ligand (various doses of TMP) was added at the time initiating the co-culture and was kept in the co-culture for 2 days. Cytokines were analyzed by MSD after a single freeze thaw cycle. All cells were cultured in complete RPMI with 10% FBS during the course of the experiment. SR indicates stabilization ratio.

T cells = experiment: % CD40L positive cells in vivo, transduced T cells in NSG mice dosed with TMP; parameters: species or system NSG female mice
Protocol: Based on the in vitro data, regulatability of CD40L constructs in vivo was tested. 10-week old NSG female mice were injected with T cells transduced with one of the following constructs empty vector, OT-001661, and OT-001662 (day 0). On day 1, mice were pre-bled prior to dose with ligand. On day 2, mice were dosed every 4 hours with TMP at 500 mg/kg body weight of the mouse or vehicle control. Two hours after every dose, blood was collected from the mice to measure CD40L levels. On day 3, i.e. 24 hours after the first dose, mice were terminally bled for analysis. The values in bold represent the average values for each bleed.

CD4+ T cells = experiment: Ligand dose response, % CD40L positive cells, CD4+ T cells; format: cell-based
Protocol: Ligand dose response curve experiments were performed with increasing doses of ligand using OT-001662 and OT-001666 constructs in both CD4+ as well as CD8+ T cells.
The experiments were conducted using three different volumes of virus for transduction i.e. 0.5, 2 and 10 μL.

B1: OT-001662: CD40L construct with ecDHFR (M1del, R12Y, Y100I) DRD, ligand TMP (protein)
chain: MSGISLIAALAVDYVIGMENAMPWNLPADLAWFKRNTLNKPVIMGRHTWESIGRPLPGRKNIILSSQPGTDDRVTWVKSVDEAIAACGDVPEIMVIGGGRVIEQFLPKAQKLYLTHIDAEVEGDTHFPDYEPDDWESVFSEFHDADAQNSHSYCFEILERRHMIETYNQTSPRSAATGLPISMKIFMYLLTVFLITQMIGSALFAVYLHRRLDKIEDERNLHEDFVFMKTIQRCNTGERSLSLLNCEEIKSQFEGFVKDIMLNKEETKKENSFEMQKGDQNPQIAAHVISEASSKTTSVLQWAEKGYYTMSNNLVTLENGKQLTVKRQGLYYIYAQVTFCSNREASSQAPFIASLCLKSPGRFERILLRAANTHSSAKPCGQQSIHLGGVFELQPGASVFVNVTDPSQVSHGTGFTSFGLLKL
CD40L MFI in vitro ([1]; CD4+, TMP (10 μM)): 10159 | CD40L MFI in vitro ([1]; CD4+, Vehicle): 348 | CD40L MFI in vitro ([1]; CD8+, TMP (10 μM)): 4893 | CD40L MFI in vitro ([1]; CD8+, Vehicle): 182 | % CD40L+ ([2]; CD4+, DMSO): 3.71% | CD40L MFI ([2]; CD4+, DMSO): 63.8 | % CD40L+ ([2]; CD4+, TMP (0.1 μM)): 4.32% | CD40L MFI ([2]; CD4+, TMP (0.1 μM)): 69.8 | % CD40L+ ([2]; CD4+, TMP (0.5 μM)): 3.34% | CD40L MFI ([2]; CD4+, TMP (0.5 μM)): 61.1 | % CD40L+ ([2]; CD4+, TMP (2 μM)): 78% | CD40L MFI ([2]; CD4+, TMP (2 μM)): 691 | % CD40L+ ([2]; CD4+, TMP (10 μM)): 84.1% | CD40L MFI ([2]; CD4+, TMP (10 μM)): 1379 | SR (based on %) ([2]; CD4+, TMP (0.1 μM)): 1.16 | SR (based on MFI) ([2]; CD4+, TMP (0.1 μM)): 1.09 | SR (based on %) ([2]; CD4+, TMP (0.5 μM)): 0.90 | SR (based on MFI) ([2]; CD4+, TMP (0.5 μM)): 0.96 | SR (based on %) ([2]; CD4+, TMP (2 μM)): 21.02 | SR (based on MFI) ([2]; CD4+, TMP (2 μM)): 10.83 | SR (based on %) ([2]; CD4+, TMP (10 μM)): 22.67 | SR (based on MFI) ([2]; CD4+, TMP (10 μM)): 21.61 | % CD40L+ ([2]; CD8+, DMSO): 0.47% | CD40L MFI ([2]; CD8+, DMSO): 57.8 | % CD40L+ ([2]; CD8+, TMP (0.1 μM)): 0.69% | CD40L MFI ([2]; CD8+, TMP (0.1 μM)): 61.5 | % CD40L+ ([2]; CD8+, TMP (0.5 μM)): 0.57% | CD40L MFI ([2]; CD8+, TMP (0.5 μM)): 54.5 | % CD40L+ ([2]; CD8+, TMP (2 μM)): 57.8% | CD40L MFI ([2]; CD8+, TMP (2 μM)): 419 | % CD40L+ ([2]; CD8+, TMP (10 μM)): 74.9% | CD40L MFI ([2]; CD8+, TMP (10 μM)): 951 | SR (based on %) ([2]; CD8+, TMP (0.1 μM)): 1.47 | SR (based on MFI) ([2]; CD8+, TMP (0.1 μM)): 1.06 | SR (based on %) ([2]; CD8+, TMP (0.5 μM)): 1.21 | SR (based on MFI) ([2]; CD8+, TMP (0.5 μM)): 0.94 | SR (based on %) ([2]; CD8+, TMP (2 μM)): 122.98 | SR (based on MFI) ([2]; CD8+, TMP (2 μM)): 7.25 | SR (based on %) ([2]; CD8+, TMP (10 μM)): 159.36 | SR (based on MFI) ([2]; CD8+, TMP (10 μM)): 16.45 | Ligand dependent regulation of CD40L ([2]; mDC-T cell co-culture 2 days, various doses of TMP, CD4 and CD8+ cells): Ligand dependent regulation of CD40L was evident | % CD40L positive cells in vivo (T cells; 0 hours, average, TMP 500 mg/kg every 4 hours): 1.0% | % CD40L positive cells in vivo (T cells; 0 hours, average, Vehicle): 0.9% | % CD40L positive cells in vivo (T cells; 0 hours, individual values, TMP 500 mg/kg every 4 hours): 0.9% (2×) and 0.4% and 1.8% | % CD40L positive cells in vivo (T cells; 0 hours, individual values, Vehicle): 0.8% and 0.9% and 0.1% and 1.8% | % CD40L positive cells in vivo (T cells; 2 hours, average, TMP 500 mg/kg every 4 hours): 8.6% | % CD40L positive cells in vivo (T cells; 2 hours, average, Vehicle): 0.9% | % CD40L positive cells in vivo (T cells; 2 hours, individual values, TMP 500 mg/kg every 4 hours): 11.8% and 13.0% and 9.6% and 0.0% | % CD40L positive cells in vivo (T cells; 2 hours, individual values, Vehicle): 0.6% and 1.0% and 0.0% and 1.9% | % CD40L positive cells in vivo (T cells; 6 hours, average, TMP 500 mg/kg every 4 hours): 19.9% | % CD40L positive cells in vivo (T cells; 6 hours, average, Vehicle): 0.3% | % CD40L positive cells in vivo (T cells; 6 hours, individual values, TMP 500 mg/kg every 4 hours): 22.1% and 25.7% and 13.8% and 18.0% | % CD40L positive cells in vivo (T cells; 6 hours, individual values, Vehicle): 0.3% and 0.4% and 0.5% and 0.2% | % CD40L positive cells in vivo (T cells; 10 hours, average, TMP 500 mg/kg every 4 hours): 20.1% | % CD40L positive cells in vivo (T cells; 10 hours, average, Vehicle): 0.1% | % CD40L positive cells in vivo (T cells; 10 hours, individual values, TMP 500 mg/kg every 4 hours): 26.0% and 21.4% and 0.0% and 33.1% | % CD40L positive cells in vivo (T cells; 10 hours, individual values, Vehicle): 0.0% (3×) and 0.3% | % CD40L positive cells in vivo (T cells; 24 hours, average, TMP 500 mg/kg every 4 hours): 12.0% | % CD40L positive cells in vivo (T cells; 24 hours, average, Vehicle): 0.6% | % CD40L positive cells in vivo (T cells; 24 hours, individual values, TMP 500 mg/kg every 4 hours): 1.2% and 0.8% and 18.9% and 27.2% | % CD40L positive cells in vivo (T cells; 24 hours, individual values, Vehicle): 0.0% and 0.3% and 1.4% and 0.7% | % CD40L positive cells (CD4+ T cells; 0.5 μL virus, TMP 0.05 nM): 31.6% | % CD40L positive cells (CD4+ T cells; 0.5 μL virus, TMP 0.5 nM): 32% | % CD40L positive cells (CD4+ T cells; 0.5 μL virus, TMP 5 nM): 33.9% | % CD40L positive cells (CD4+ T cells; 0.5 μL virus, TMP 50 nM): 35.7% | % CD40L positive cells (CD4+ T cells; 0.5 μL virus, TMP 500 nM): 48.2% | % CD40L positive cells (CD4+ T cells; 0.5 μL virus, TMP 5000 nM): 67% | % CD40L positive cells (CD4+ T cells; 0.5 μL virus, TMP 50000 nM): 68.9% | % CD40L positive cells (CD4+ T cells; 2 μL virus, TMP 0.05 nM): 25.1% | % CD40L positive cells (CD4+ T cells; 2 μL virus, TMP 0.5 nM): 24.4% | % CD40L positive cells (CD4+ T cells; 2 μL virus, TMP 5 nM): 27.6% | % CD40L positive cells (CD4+ T cells; 2 μL virus, TMP 50 nM): 37.4% | % CD40L positive cells (CD4+ T cells; 2 μL virus, TMP 500 nM): 68.4% | % CD40L positive cells (CD4+ T cells; 2 μL virus, TMP 5000 nM): 76.8% | % CD40L positive cells (CD4+ T cells; 2 μL virus, TMP 50000 nM): 76.8% | % CD40L positive cells (CD4+ T cells; 10 μL virus, TMP 0.05 nM): 23.8% | % CD40L positive cells (CD4+ T cells; 10 μL virus, TMP 0.5 nM): 24.2% | % CD40L positive cells (CD4+ T cells; 10 μL virus, TMP 5 nM): 24.6% | % CD40L positive cells (CD4+ T cells; 10 μL virus, TMP 50 nM): 30.7% | % CD40L positive cells (CD4+ T cells; 10 μL virus, TMP 500 nM): 58.5% | % CD40L positive cells (CD4+ T cells; 10 μL virus, TMP 5000 nM): 79.1% | % CD40L positive cells (CD4+ T cells; 10 μL virus, TMP 50000 nM): 78.8%
